Data as given in the nanobody polyreactivity screen of Harvey et al. (2022).

Experiment: yeast display, Sf9 membrane polyspecificity reagent, FACS + sequencing; frameworks hold sequencing errors
How it was run: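 In a synthetic yeast display library (Saccharomyces cerevisiae BJ5465), nanobody expression was induced with galactose for 36–48 hours. FACS gates were set low and high (top ~1%) using anti-HA fluorescence for expression and streptavidin fluorescence for binding of the Sf9 membrane reagent. Each polyreactivity label is drawn from the gate of origin.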

Sequence | polyreactivity (PSR sort gate)
QVQLVESGGGLVQAGGSLRLSCAASGRIFSTNAMGWYRQAPAKERELVAAITRGVSTKYADSVKRRFTISRDNAKNTVYLQMNSLKPEDTAVYYCAASVVWGPESDYWGQGTQVTVSS | low polyreactivity
QVQLVESGGGLVQAGGSLRLSCAASGRIFSTYTMGWYRQAPGKERELVAAIRANGGSTYYADSVKGRFTISRDNAKNTVYLQMNSLKPEVTAVYYCNARRPIGTGYYWGQGTQVTVSS | high polyreactivity
QVQLVESGGGLVQAGGSLRLSCAASGRIFSTYVMGCYRQAPGKERELVAAITRGGSTNYADSVKGRFTISRDNAKNTVYLQMNSLKPEDTAVYYCNAQRRGTYYLGQGTQVTVSS | high polyreactivity
QVQLVESGGGLVQAGGSLRLSCAASGRIFSTYVMGWYRQAPGKERELVAAIRNRGGSTYYADSVKGRFTISRDNAKNTVYLQMNSLKPEDTAVFYCAAEYSYRYRVSMDYWGQGTQVTVSS | high polyreactivity
QVQLVESGGGLVQAGGSLRLSCAASGRIFSTYVMGWYRQAPGKERELVAAITWSGGSTYYADSVKGRFTISRDTAQNTVYLQMNTLKPEDTAVYYCAADEIYGYDYWGQGTQVTVSS | high polyreactivity
QVQLVESGGGLVQAGGSLRLSCAASGRIFSVNAMGWYRQAPGKERELVAAITPGASTNYADSVKGRFTISRDNAKNTVYLQMNSLKPEDTAVYYCAAGWVSFEDWVLGSYYEYDYWGQGTQVTVSS | low polyreactivity
QVQLVESGGGLVQAGGSLRLSCAASGRIFSVNAMGWYRQAPGKERELVAAITSGGRTNYADSVKGRFTISRDNAKNTFYLQMNSLKPEDTAVYYCAAPYLKGGEDDYWGQGTQVTVSS | high polyreactivity
QVQLVESGGGLVQAGGSLRLSCAASGRIFSVYAMGWYRQAPGKEREFVASISWRGGRTYYADSVKGRFTISRDNAKNTVYLQMNSLKPEDTAVYYCAAVSYPAVYGFDYWGQGTQVTVSS | high polyreactivity
QVQLVESGGGLVQAGGSLRLSCAASGRIFSVYAMGWYRQAPGKERELVAAITNGGRTNYADSVKGRFTISRDNAKNTVYLQMNSLKPEDTAVYYCATDPVKSGYQRYYYWGQGTQVTVSS | low polyreactivity
QVQLVESGGGLVQAGGSLRLSCAASGRIFSVYDMGWYRQAPGKERELVAAIDTSDGSTNYADSVTGRFTISRDNAKNTVYLQMNSLKPEDTAVYYCNATDSYVPFDYWGQGTQVTVSS | low polyreactivity
QVQLVESGGGLVQAGGSLRLSCAASGRIFSVYDMGWYRQAPGKERELVAAISWSGGTTYYADSVKGRFTISRDNAKNTVYLQMNSLKPEDTAVYYCAARSRSRYDYWGQGTQVTVSS | high polyreactivity
QVQLVESGGGLVQAGGSLRLSCAASGRIFSVYTMGWYRKAPGKERELVATISSGGRTNYADSVKGRFTISRDNAKNTVYLQMNSLKPEDTAVYYCAAVPYGFVGYDDYWGQGTQVTVSS | low polyreactivity
QVQLVESGGGLVQAGGSLRLSCAASGRIFSVYTMGWYRQAPGKERELVAAISSGASTNYADSVKGRFTISRDNAKNTVYLQMNSLKPEDTAVYYCAKVLTNFNLYYYWGQGTQVTVSS | low polyreactivity
QVQLVESGGGLVQAGGSLRLSCAASGRIFSVYTMGWYRQAPGKERELVATISSGGRTNYADSVKGRFTISRDNAKNTVYLQLNSLKPEDTAVYYCNADYFGQESWWMDYWGQGTQVTVSS | low polyreactivity
QVQLVESGGGLVQAGGSLRLSCAASGRIFSYNAMGWYRPAPGKEREIVAGITKSGDDTFYADSVKGRFTISRDNAKNTVYLQMNSLKPQDTAVYYCAAASNPRYYTNRMVYWGQGTQVTVSS | low polyreactivity
QVQLVESGGGLVQAGGSLRLSCAASGRIFSYNTVMGWYRQAPGKERELVAAITYSSASTYYADSVKGRFTISRDNAKNTVYLQMNSLKPEDTAVYYCAADAYTPGYRGDYWGQGTQVTVSS | low polyreactivity
QVQLVESGGGLVQAGGSLRLSCAASGRIFSYYAMGWYRQAPGKERELVAAISRTGGRTYYADSVKGRFTISRDNAKNTVYLQMNSLKPEDTAVYYCNVVGRRYWHWDQALDYWGQGTQVTVSS | high polyreactivity
QVQLVESGGGLVQAGGSLRLSCAASGRIFSYYAMGWYRQAPGKERELVAAITKSGGSTFYADSVKGRFTISRDNAKNTVYLQMNSLKPEDTAVYYCAAEVTLEDWGYSWKYDYLGQGTQVTVSS | high polyreactivity
QVQLVESGGGLVQAGGSLRLSCAASGRIFSYYAMGWYRQAPGKERELVAAITRRDGRTYYADSVKGRFTISRDNAKNTVYLQMNSLKPEDTAVYYCAAYLAASYDWGQGTQVTVSS | low polyreactivity
QVQLVESGGGLVQAGGSLRLSCAASGRIFSYYAMGWYRQAPGKERELVATISGSGGSTYYADSVKGRFTISRDNAKNTVYLQMNSLKPEDTAVYYCAATGFIFRGRVRAIPRRYNYWGQGTQVTVSS | high polyreactivity
QVQLVESGGGLVQAGGSLRLSCAASGRIFSYYAMRWFRQAPGKERELVAAISSGGSTNYADSVKGRFTISRDNAKNTVYLQMNSLKPEDTAVYYCNAVRGWTTRYDYWGQGTQVTVSS | high polyreactivity
QVQLVESGGGLVQAGGSLRLSCAASGRIFSYYDMGWYRQAPGKERELVAAITWGGGSTYYADSLKGRFTISRDNAKNTVYLHMNSLKPEDNAVFYSAADWSPSIWEYDYWGQGTEVTVSS | low polyreactivity

Sequence | polyreactivity (PSR sort gate)
QVQLVESGGGLVQAGGSLRLSCAASGRIFSYYGMGWYRQAPGKERELVAAITWRGSTTNYADSVKGRFTISRDNAKNTVYLQMNSLKPEDTAVYYCAPLHSAGYAYDYWGQGTQVTVSS | high polyreactivity
QVQLVESGGGLVQAGGSLRLSCAASGRIFSYYTMGWYRQAPGKERELVAAISSGGSTNYADSVKGRFTISRDNAKNTVYLQMNSLKPEDTAVYYCAVRSGRRNYDRPAFGYWGQGTQVTVSS | high polyreactivity
QVQLVESGGGLVQAGGSLRLSCAASGRIFSYYTMGWYRQAPGKERELVAAITASDGDTYYADSVKGRFTISRDNAKNTVYLQMNSLKPEDTAVYYCNAELFSVNGYDYWGQGTQVTVSS | low polyreactivity
QVQLVESGGGLVQAGGSLRLSCAASGRIFTAYAMGWYRQAPGKERELVAAISSGDSTYYADSVKGRFTISRDNAKNTVYLQMNSLKPEDTAVYYCATGVYPDFEYDSWGQGTQVTVSS | low polyreactivity
QVQLVESGGGLVQAGGSLRLSCAASGRIFTAYAMVWYRPAPGKERELVAAISSGDSTYYADSVKGRFTISRDNAKNTVYLQKNSLKPEETAVYSCATGVYPDFEYDSWGQGTQVTVSS | low polyreactivity
QVQLVESGGGLVQAGGSLRLSCAASGRIFTDYAMAWYRQAPGKEREFVAAINKSGGSTYYADSVKGRFTISRDNAKNTVYLEMNSLKPEDTAVYYCAKSLGQTDWEYDSWGQGTQVTVSS | low polyreactivity
QVQLVESGGGLVQAGGSLRLSCAASGRIFTDYDMGGYRHAPGKERELVASISGSDGNTDYADSVKGRFTISRDNAKNTVYLQMNSLKPEDTAVYYCAADLRVYDFFRYPETYGYWGQGTQVTVSS | low polyreactivity
QVQLVESGGGLVQAGGSLRLSCAASGRIFTFNAMGWYRQAPGKERELVAAGSTYYADSVKGRFTISRDNAKNTVYLQMNSLKPEDTAVYYCAVEDLGSEGWGWYKEMDYWGQGTQVTVSS | low polyreactivity
QVQLVESGGGLVQAGGSLRLSCAASGRIFTFYAMGWYRQAPGKARELVASITGGGNTYYADSVKGRFTISRDNAKNTVYLQMNSLKPEDTAVYYCNADEWRWDEIIPYAVDYWGQGTQVTVSS | low polyreactivity
QVQLVESGGGLVQAGGSLRLSCAASGRIFTGNALGWYRQAPGKESELVAAITRNGGSTYYADSVKGRFTLSRDNAKNTVYVQMNSLKPEDTAVYYCAAKLSPVYYRRYDYWGQGTQVTVSS | high polyreactivity
QVQLVESGGGLVQAGGSLRLSCAASGRIFTGNVMGWYRQAPGKERELVAAISRRGGGTYYADSVKGRFTISRDNAKNTVYLQMNSLKPEDTAVYYCAAQYRSQGQPKGGVLYYYWGQGTQVTVSS | high polyreactivity
QVQLVESGGGLVQAGGSLRLSCAASGRIFTGNVMGWYRQAPGKERELVAAITYRRGSTYYADSVKGRFTISRDNAKNTVYLQMNSLKPEDSAVYYCNTGWDPYGYDYWGQGTQVTVSS | low polyreactivity
QVQLVESGGGLVQAGGSLRLSCAASGRIFTGYAMGWYRQAPGKERELVASITWRGGSTSYADSVKGRFTISRDNAKNTVYLQMNSLKPEDTAVYYCAAQKWYYPYYWGQGTQVTVSS | high polyreactivity
QVQLVESGGGLVQAGGSLRLSCAASGRIFTGYDMGWYRQAPGKERELVAAISRGGSTNYADSVKGRFTISRDNAKNTVYLQMNSLKPEDTAVYYCADGVHWDRGDYWVQGTQVTVSS | low polyreactivity
QVQLVESGGGLVQAGGSLRLSCAASGRIFTHNAMGWYRQAPGKEREVVAAISYSGVSTYYADSVKGRFTISRDNAKNTVYLQRNSLNTDDTAVYFCARRYWYPDAFYRYDYWGQGTPVTVSS | low polyreactivity
QVQLVESGGGLVQAGGSLRLSCAASGRIFTHYAMGWYRQAPGKERELVASISWSGGSTNYADSVKGRFTMSRDNAMNTVYLQMNSLKPEDTAVYYCARKYRYLFATFDYWGQGTQVTVSS | high polyreactivity
QVQLVESGGGLVQAGGSLRLSCAASGRIFTIYAMGWYRQAPGKERELVAAITRGGNTNYADSVKGRFTISRDNAKNTVYLQMNSLKPEDTAVYYCAARANVYTKKRDYWGQGTQVTVSS | high polyreactivity
QVQLVESGGGLVQAGGSLRLSCAASGRIFTKNTMGWYRQAPAQERELVAAIRSRAGSTYYADSVKGRFTISRDNEKNTVYLQMNSLKPEDTAVYYCAVRWFRSVDFDYWGQGTQVTVSS | low polyreactivity
QVQLVESGGGLVQAGGSLRLSCAASGRIFTKYAMGWYRQAPGKERELVAAISQIGGSTYYADSVKGRFTISRDKAKNTVYLQMNSLKPEDTAVYYCAARWREASYRYENWGQGTQVTVSS | high polyreactivity
QVQLVESGGGLVQAGGSLRLSCAASGRIFTKYAMGWYRQAPGKERELVAAITTSGGSTYYADSVKGRFTISRDNAKNTVYLQMNSLKPEDTAVYYCAARTYHRYDYWGQGTQVTVSS | high polyreactivity
QVQLVESGGGLVQAGGSLRLSCAASGRIFTLYAMGWYRQAPGTERELVAAITYTGANTYYADSVKGRFTISRDNAKNTVYLQMNSLKPEDTAVYYCAASGYYYDYWGQGTQVTVSS | high polyreactivity
